In US20120253013A1:

Molecular target: HGF receptor c-Met on uninfected HUVECs (human) (UniProt P08581)
Test: cell-based or functional assay

Chain of UniProt P08581 (P08581 25-1390): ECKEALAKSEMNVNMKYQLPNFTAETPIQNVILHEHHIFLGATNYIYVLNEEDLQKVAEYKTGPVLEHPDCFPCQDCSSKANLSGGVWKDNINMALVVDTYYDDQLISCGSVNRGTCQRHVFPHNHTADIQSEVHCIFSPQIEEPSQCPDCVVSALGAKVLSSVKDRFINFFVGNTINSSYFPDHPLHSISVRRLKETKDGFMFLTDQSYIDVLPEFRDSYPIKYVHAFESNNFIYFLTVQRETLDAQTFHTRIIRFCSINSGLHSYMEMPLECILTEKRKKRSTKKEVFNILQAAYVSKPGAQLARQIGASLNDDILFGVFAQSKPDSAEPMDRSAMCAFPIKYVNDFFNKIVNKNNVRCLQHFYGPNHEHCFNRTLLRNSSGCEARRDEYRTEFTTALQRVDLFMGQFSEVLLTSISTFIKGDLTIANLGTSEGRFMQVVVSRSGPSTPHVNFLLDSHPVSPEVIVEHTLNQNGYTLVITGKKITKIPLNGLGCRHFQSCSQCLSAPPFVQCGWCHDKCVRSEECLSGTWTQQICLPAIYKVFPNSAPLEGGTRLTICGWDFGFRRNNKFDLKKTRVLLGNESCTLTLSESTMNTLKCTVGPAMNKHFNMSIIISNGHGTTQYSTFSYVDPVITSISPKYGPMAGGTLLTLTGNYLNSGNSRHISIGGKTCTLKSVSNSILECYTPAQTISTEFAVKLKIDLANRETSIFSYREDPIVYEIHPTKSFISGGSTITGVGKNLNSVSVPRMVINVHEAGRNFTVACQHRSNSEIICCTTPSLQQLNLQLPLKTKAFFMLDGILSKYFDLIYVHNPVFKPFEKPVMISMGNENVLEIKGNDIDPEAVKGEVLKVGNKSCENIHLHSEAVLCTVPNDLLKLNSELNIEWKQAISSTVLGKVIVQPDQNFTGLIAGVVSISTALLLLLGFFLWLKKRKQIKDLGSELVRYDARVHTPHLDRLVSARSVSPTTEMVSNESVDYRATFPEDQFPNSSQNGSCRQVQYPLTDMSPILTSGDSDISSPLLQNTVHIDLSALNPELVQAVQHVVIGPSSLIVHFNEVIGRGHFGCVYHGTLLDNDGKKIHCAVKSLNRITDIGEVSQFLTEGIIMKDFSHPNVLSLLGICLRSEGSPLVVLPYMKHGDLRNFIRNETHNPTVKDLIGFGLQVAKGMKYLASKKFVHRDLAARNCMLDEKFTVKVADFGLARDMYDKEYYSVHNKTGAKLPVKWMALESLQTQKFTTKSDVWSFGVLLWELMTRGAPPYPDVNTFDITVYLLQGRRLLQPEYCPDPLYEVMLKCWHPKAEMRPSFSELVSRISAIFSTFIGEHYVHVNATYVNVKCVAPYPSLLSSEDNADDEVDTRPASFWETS

c-Met receptor phosphorylation on tyrosine 1234/1235 (PathScan Phospho-Met Sandwich ELISA), fold increase against Ad-lacZ: 1.8 fold
Substance: hepatocyte growth factor (HGF) in conditioned medium from Ad-Egr3 infected HUVECs (from UniProt P14210 32-728) (ligand)
